From publication doi:10.1101/2025.05.24.655746 (bioRxiv, 2025)

T1: full-length RAD51AP1-H346A (Site-C mutant) (UniProt Q96B01 1-352, H346A)
T1 sequence: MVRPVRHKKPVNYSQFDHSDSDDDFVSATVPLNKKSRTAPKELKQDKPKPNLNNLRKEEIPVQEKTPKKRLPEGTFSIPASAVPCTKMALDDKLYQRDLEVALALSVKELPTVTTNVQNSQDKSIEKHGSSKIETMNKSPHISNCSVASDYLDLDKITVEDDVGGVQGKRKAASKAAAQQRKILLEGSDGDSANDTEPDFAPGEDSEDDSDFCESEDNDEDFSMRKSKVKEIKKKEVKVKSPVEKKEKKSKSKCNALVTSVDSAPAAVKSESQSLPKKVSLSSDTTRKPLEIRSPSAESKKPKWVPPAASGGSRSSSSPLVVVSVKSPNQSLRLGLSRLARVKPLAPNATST

T2: full-length RAD51AP1 variant in which both Site-N and Site-C are mutated (NC) (UniProt Q96B01 1-352)
T2 chain: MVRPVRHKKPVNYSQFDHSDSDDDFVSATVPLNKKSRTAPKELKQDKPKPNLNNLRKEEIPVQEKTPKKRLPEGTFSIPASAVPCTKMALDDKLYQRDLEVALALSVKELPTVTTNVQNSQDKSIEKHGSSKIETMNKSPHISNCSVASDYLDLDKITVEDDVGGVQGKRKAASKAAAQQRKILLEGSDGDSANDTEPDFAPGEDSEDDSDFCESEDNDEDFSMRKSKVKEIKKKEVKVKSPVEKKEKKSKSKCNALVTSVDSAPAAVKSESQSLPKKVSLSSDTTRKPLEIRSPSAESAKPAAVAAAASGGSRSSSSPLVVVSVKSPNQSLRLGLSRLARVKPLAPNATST

T3: full-length RAD51AP1 (RAD51 Associated Protein 1), wild type (UniProt Q96B01 1-352)
T3 sequence: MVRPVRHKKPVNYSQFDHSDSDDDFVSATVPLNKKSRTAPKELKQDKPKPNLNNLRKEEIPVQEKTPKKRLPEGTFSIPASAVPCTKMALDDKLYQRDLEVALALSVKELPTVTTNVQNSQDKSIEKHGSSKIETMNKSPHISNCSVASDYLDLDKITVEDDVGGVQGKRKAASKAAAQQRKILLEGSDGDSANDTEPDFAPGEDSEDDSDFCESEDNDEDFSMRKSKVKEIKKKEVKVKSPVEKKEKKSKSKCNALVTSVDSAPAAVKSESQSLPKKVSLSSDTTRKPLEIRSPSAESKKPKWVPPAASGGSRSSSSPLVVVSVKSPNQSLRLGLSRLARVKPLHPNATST

B1: RAD51 recombinase (natural protein)
chain: MAMQMQLEANADTSVEEESFGPQPISRLEQCGINANDVKKLEEAGFHTVEAVAYAPKKELINIKGISEAKADKILAEAAKLVPMGFTTATEFHQRRSEIIQITTGSKELDKLLQGGIETGSITEMFGEFRTGKTQICHTLAVTCQLPIDRGGGEGKAMYIDTEGTFRPERLLAVAERYGLSGSDVLDNVAYARAFNTDHQTQLLYQASAMMVESRYALLIVDSATALYRTDYSGRGELSARQMHLARFLRMLLRLADEFGVAVVITNQVVAQVDGAAMFAADPKKPIGGNIIAHASTTRLYLRKGRGETRICKIYDSPCLPEAEAMFAINADGVGDAKD

Key:
[1] = biological target: T1, full-length RAD51AP1-H346A (Site-C …); assay: BLI
[2] = biological target: T2, full-length RAD51AP1 variant in which …; assay: BLI
[3] = biological target: T3, full-length RAD51AP1 (RAD51 Associated …); assay: BLI
RAD51 recombinase = biological target: B1; assay: pull-down

| fold decrease in binding affinity against wild type [1] [fold] | fold reduction in affinity against wild type [2] [fold] | Kd [3] [nM] | binding result (RAD51 recombinase) | Binder |
| --- | --- | --- | --- | --- |
| ~2.5 | ~4 | ~600 |  | B1 |
|  |  |  | binds | full-length RAD51AP1 Site-N mutant (K300, K303, W304, P306, P307 to alanine) (natural protein) MVRPVRHKKPVNYSQFDHSDSDDDFVSATVPLNKKSRTAPKELKQDKPKPNLNNLRKEEIPVQEKTPKKRLPEGTFSIPASAVPCTKMALDDKLYQRDLEVALALSVKELPTVTTNVQNSQDKSIEKHGSSKIETMNKSPHISNCSVASDYLDLDKITVEDDVGGVQGKRKAASKAAAQQRKILLEGSDGDSANDTEPDFAPGEDSEDDSDFCESEDNDEDFSMRKSKVKEIKKKEVKVKSPVEKKEKKSKSKCNALVTSVDSAPAAVKSESQSLPKKVSLSSDTTRKPLEIRSPSAESAKPAAVAAAASGGSRSSSSPLVVVSVKSPNQSLRLGLSRLARVKPLHPNATST |
